In patent publication US20130158238A1 (THERACLONE SCIENCES, published 2013):
Like-named read-outs stand apart in the source and are kept apart here.

T1: A.Hong Kong.1.68.H3N2
T1 M2: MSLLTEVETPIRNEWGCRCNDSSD

T2: A.X-31 Vaccine strain H3N2
T2 M2: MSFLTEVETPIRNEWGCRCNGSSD

T3: A.Caracas.1.71.H3N2
T3 M2: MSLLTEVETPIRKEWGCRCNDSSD

T4: A.Hong Kong.1180.99 H3N2
T4 M2: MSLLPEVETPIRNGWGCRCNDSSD

T5: A.Hong Kong.1144.99.H3N2
T5 M2: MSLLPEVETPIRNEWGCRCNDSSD

B1: 23K12 (antibody, V domains shown)
VH: EVQLVESGGGLVQPGGSLRISCAASGFTVSSNYMSWVRQAPGKGLEWVSVIYSGGSTYYADSVKGRFSFSRDNSKNTVFLQMNSLRAEDTAVYYCARCLSRMRGYGLDVWGQGTTVTVS
VL: DIQMTQSPSSLSASVGDRVTITCRTSQSISSYLNWYQQKPGKAPKLLIYAASSLQSGVPSRFSGSGSGTDFTLTISGLQPEDFATYYCQQSYSMPAFGQGTKLEIK
B2: 8i10 (antibody, V domains shown)
VH: QVQLQESGPGLVKPSETLSLTCTVSGSSISNYYWSWIRQSPGKGLEWIGFIYYGGNTKYNPSLKSRVTISQDTSKSQVSLTMSSVTAAESAVYFCARASCSGGYCILDYWGQGTLVTVS
VL: DIQMTQSPSSLSASVGDRVTITCRASQNIYKYLNWYQQRPGKAPKGLISAASGLQSGVPSRFSGSGSGTDFTLTITSLQPEDFATYYCQQSYSPPLTFGGGTRVEIK

What was measured:
[1] = target: M2e peptide … (23mer synthetic peptide of M2 derived from A/Fort Worth/1/50) (Influenza A virus A/Fort Worth/1/50 (H1N1)); experiment: ELISA, peptide coated at 1 µg/ml
[2] = target: M2 protein of A/Puerto Rico/8/34 (H1N1), on cells (Influenza A virus A/Puerto Rico/8/34 (H1N1)) (UniProt P06821); experiment: flow cytometry on MDCK cells infected with A/Puerto Rico/8/34
[3] = target: M2e peptide … (23mer synthetic peptide of M2 derived from A/Fort Worth/1/50) (Influenza A virus A/Fort Worth/1/50 (H1N1)); experiment: ELISA, peptide 2 µg/mL, mAb 5 µg/mL
[4] = target: M2e; experiment: ELISA, peptide 2 µg/mL, mAb 5 µg/mL
[5] = target: T1, A.Hong Kong.1.68.H3N2; experiment: FACS, transfected HEK293, mAb 1 µg/ml [D00006 FIG. 3C-1]
[6] = target: T2, A.X-31 Vaccine strain H3N2; experiment: as above
[7] = target: T3, A.Caracas.1.71.H3N2; experiment: as above
[8] = target: T4, A.Hong Kong.1180.99 H3N2; experiment: FACS, transfected HEK293 [D00006 FIG. 3C-1]
[9] = target: T5, A.Hong Kong.1144.99.H3N2; experiment: FACS, transfected HEK293 [D00006 FIG. 3C-1]
[10] = target: M16; experiment: ELISA, peptide 2 µg/mL, mAb 5 µg/mL
[11] = target: NM17; experiment: ELISA, peptide 2 µg/mL, mAb 5 µg/mL
[12] = target: NM15; experiment: ELISA, peptide 2 µg/mL, mAb 5 µg/mL
[13] = target: M15; experiment: ELISA, peptide 2 µg/mL, mAb 5 µg/mL
[14] = target: M2e peptide … (23mer synthetic peptide of M2 derived from A/Fort Worth/1/50) (Influenza A virus A/Fort Worth/1/50 (H1N1)); experiment: ELISA, peptide 2 µg/mL, mAb 5 µg/mL; remark: listed apart in the source

| Molecule | EC50 [1] [µg/mL] | EC50 (read off the curve) [2] [µg/mL] | binding activity (ELISA A450) [3] | binding activity (ELISA A450) [4] | binding result [5] | binding result [6] | binding result [7] | binding result [8] | binding result [9] | binding activity (ELISA A450) [10] | binding activity (ELISA A450) [11] | binding activity (ELISA A450) [12] | binding activity (ELISA A450) [13] | binding activity (ELISA A450) [14] |
| --- | --- | --- | --- | --- | --- | --- | --- | --- | --- | --- | --- | --- | --- | --- |
| 14C2 (chimeric mouse V-region/human IgG1 kappa 14C2 antibody) | 0.01 | 0.3 | 3.85 | 3.98 | – | – | – | – | – | – | – | – | – | – |
| B1 | – | – | – | – | binds | binds | binds | no binding (tested: 1 µg/ml) | no binding (tested: 1 µg/ml) | 0.21 | 0.58 | 0.3 | 0.21 | 0.22 |
| B2 | – | – | – | – | – | binds | binds | – | – | – | – | – | – | – |
